Results taken from publication PMC4048344 (Channels, 2014).
One block for each molecule: values may come before it.

Assays:
[1] = molecular target: MBP-tagged SK2-ARK C-terminus (aa 368-553) (chicken); assay: pull-down
[2] = molecular target: chicken SK2-ARK splice variant, full length, expressed in Xenopus oocytes (chicken); assay: co-IP
[3] = molecular target: MBP-tagged SK2 C-terminus (aa 368-553) (chicken, UniProt Q9PTS9 368-553); assay: pull-down
[4] = molecular target: chicken SK2 (isoform lacking the ARK insert), full length, expressed in Xenopus oocytes (chicken, UniProt Q9PTS9 1-553); assay: co-IP

Molecule: HA-tagged α9/10-nicotinic acetylcholine receptor (chicken α9 and α10-HA subunits) (from UniProt Q9PTS8 28-484; Q9I8C7 27-452) (complex)
co-precipitated α9/10-nAChRs, percent of that with SK2 [2]: 173 % of SK2

B1: GST-tagged full-length human α-actinin-1 (natural protein, UniProt P12814-3 1-914, looked up)
chain: MDHYDSQQTNDYMQPEEDWDRDLLLDPAWEKQQRKTFTAWCNSHLRKAGTQIENIEEDFRDGLKLMLLLEVISGERLAKPERGKMRVHKISNVNKALDFIASKGVKLVSIGAEEIVDGNVKMTLGMIWTIILRFAIQDISVEETSAKEGLLLWCQRKTAPYKNVNIQNFHISWKDGLGFCALIHRHRPELIDYGKLRKDDPLTNLNTAFDVAEKYLDIPKMLDAEDIVGTARPDEKAIMTYVSSFYHAFSGAQKAETAANRICKVLAVNQENEQLMEDYEKLASDLLEWIRRTIPWLENRVPENTMHAMQQKLEDFRDYRRLHKPPKVQEKCQLEINFNTLQTKLRLSNRPAFMPSEGRMVSDINNAWGCLEQVEKGYEEWLLNEIRRLERLDHLAEKFRQKASIHEAWTDGKEAMLRQKDYETATLSEIKALLKKHEAFESDLAAHQDRVEQIAAIAQELNELDYYDSPSVNARCQKICDQWDNLGALTQKRREALERTEKLLETIDQLYLEYAKRAAPFNNWMEGAMEDLQDTFIVHTIEEIQGLTTAHEQFKATLPDADKERLAILGIHNEVSKIVQTYHVNMAGTNPYTTITPQEINGKWDHVRQLVPRRDQALTEEHARQQHNERLRKQFGAQANVIGPWIQTKMEEIGRISIEMHGTLEDQLSHLRQYEKSIVNYKPKIDQLEGDHQLIQEALIFDNKHTNYTMEHIRVGWEQLLTTIARTINEVENQILTRDAKGISQEQMNEFRASFNHFDRDHSGTLGPEEFKACLISLGYDIGNDPQKKTGMMDTDDFRACLISMGYNMGEAEFARIMSIVDPNRLGVVTFQAFIDFMSRETADTDTADQVMASFKILAGDKNYITMDELRRELPPDQAEYCIARMAPYTGPDSVPGALDYMSFSTALYGESDL
fold increase in binding with 1 mM CaCl2 against 5 mM BAPTA [3]: 3.2 fold

B2: HA-tagged α9/10-nicotinic acetylcholine receptor (chicken α9 and α10-HA subunits) (complex)
chain 1: AKGKYAQMLFNELFEDYSNALRPVEDTDKVLNVTLQITLSQIKDMDERNQILTAYLWIRQSWYDAYLKWDKDKYDGLDSIRIPSNLVWRPDIVLYNKADDDFSEPVNTNVVLRYDGKITWDAPAITKSSCVVDVSYFPFDSQQCNLTFGSWTYNGNQVDIINSLDSGDLSDFVEDVEWEIHGMPAVKNVITYGCCSEPYPDVTFTLILKRKSSFYIFNLLLPCILISFLAPLGFYLPADSGEKVSLGVTVLLALTVFQLMVAEIMPPSENVPLIGKYYIATMTMITASTALTIIIMNVHHCGSEAKPVPQWARVVILDYMSKIFFVYDVGENCTSPRREKEQEHRLEGGDMCRGGDGKSHLSSRNDDSDLKENLNGNWNKSFGVHGENVRENVNCCSCYKMLIKNIEYIANCVRDHKANRAKGIEWKKVAKVMDRFFMWIFFIMVFFMSVLIIGKAA
chain 2: AQGRLAHKLLHDLFANYSSALRPAEDTERALNVTLQVTLSQIIDMDERNQVLTSYLWVRQAWLDAHLAWDKDAYGGIDSIRIPSSYVWRPDIVLYNNADERFGGSMETNVVLRSDGHIMWDSPAITKSSCKVDVSYFPFDGQQCRLTFGSWTYNGNQIDLRNLLDTGDLTDFVENVEWEVLGMPATRNVVTYGCCSEPYPDVTYTLLLRRRASFYIFNLLLPCVMISFLAPLGFYLPADSGEKVSLGVTVLLALTVFQLLVAESMPPSESVPLIGKYYIATMTMITASTALTIFIMNIHHCGPGARPVPPWARRLILHHLARALCVCEVGESCGRPQREGTGGMGPRDPPGEGVEPGLCPRSRCLCHHHAVLSSVGYIAGVFRRHRTAQRRAAEWKKVAKVMDRFFMWVFFLMVFLMSVLVIGKAA
fold change of co-precipitation after BAPTA-AM [4]: 2 fold

The next lines start with the values.

bound α-actinin-1, percent of that bound to SK2 [1]: 81.2 % of SK2
fold increase in binding with 1 mM CaCl2 against 5 mM BAPTA [1]: 6.8 fold
Molecule: GST-tagged full-length human α-actinin-1 (from UniProt P12814-3 1-914) (natural protein)

co-precipitated CaM with 5 mM BAPTA, percent of that with SK2 [1]: 142 % of SK2
Molecule: calmodulin, purified from bovine brain (from UniProt P62157 1-149) (natural protein)
